Experiments:
human CD63 [1] = target: T1, human CD63 (human, UniProt P08962 2-238); experiment: ECL, NIH3T3/hCD63 cells
T1 construct: stably transfected in NIH3T3/hCD63; The cell line is named under assay; also called hCD63
T1 sequence: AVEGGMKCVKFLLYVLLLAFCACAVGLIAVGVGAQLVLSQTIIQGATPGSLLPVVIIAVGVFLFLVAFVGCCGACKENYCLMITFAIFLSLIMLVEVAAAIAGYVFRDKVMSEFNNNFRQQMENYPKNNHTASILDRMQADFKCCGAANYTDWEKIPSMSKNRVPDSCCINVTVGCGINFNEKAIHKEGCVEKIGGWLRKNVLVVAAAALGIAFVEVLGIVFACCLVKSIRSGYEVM
Procedure, shortened: (§1)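 Detached cells (~2.0×10⁴/well: NIH3T3/hCD63, LNCAP, U87MG, or parental NIH3T3 as negative control) were plated on carbon-electrode plates and blocked with 2% BSA. Anti-CD63 or isotype antibodies (1.7 pM–100 nM, in duplicate) were bound 1 h at RT, then washed. Signal read as electrochemiluminescence.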

[2] = target: T2, recombinant human CD63 extracellular loop 2 expressed with a C-terminal human Fc tag (human); experiment: SPR Biacore, mAb captured, 37C
T2 construct: also called hCD63 EC loop 2-hFc; human CD63 EC loop 2-Fc
T2 sequence (chain, as listed by the source limits assumed): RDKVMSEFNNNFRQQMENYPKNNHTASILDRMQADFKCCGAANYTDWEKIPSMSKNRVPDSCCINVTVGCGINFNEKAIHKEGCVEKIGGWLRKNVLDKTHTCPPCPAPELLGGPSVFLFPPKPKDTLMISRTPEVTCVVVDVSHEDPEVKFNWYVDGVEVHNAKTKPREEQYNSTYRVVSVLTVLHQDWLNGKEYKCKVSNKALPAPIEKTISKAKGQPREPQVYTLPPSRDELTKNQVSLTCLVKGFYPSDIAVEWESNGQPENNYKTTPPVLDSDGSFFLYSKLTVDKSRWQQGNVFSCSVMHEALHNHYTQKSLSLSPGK
Procedure, shortened: (§2)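 Anti-CD63 mAbs captured on anti-mouse Fc or anti-human Fab surfaces; CD63 EC2 reagents flowed in HBS-ET, pH 7.4, at 25° C or 37° C. ka and kd from 1:1 binding model with mass transport limitation; KD and t½ calculated from kinetic rates.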

[3] = target: T3, recombinant human CD63 extracellular loop 2 expressed with a C-terminal Myc-Myc-hexahistidine (human); experiment: SPR Biacore, mAb captured, 37C
T3 construct: also called hCD63 EC loop 2-MMH; human CD63 EC loop 2-MMH
T3 sequence (chain, as listed by the source limits assumed): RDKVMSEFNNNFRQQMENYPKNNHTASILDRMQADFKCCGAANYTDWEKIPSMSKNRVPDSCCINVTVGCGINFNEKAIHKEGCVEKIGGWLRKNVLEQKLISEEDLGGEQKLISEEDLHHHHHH
Procedure, shortened: as §2

human CD63 [4] = target: T1, human CD63; experiment: ECL, LNCAP cells
Procedure, shortened: as §1

human CD63 [5] = target: T1, human CD63; experiment: ECL, U87MG cells
Procedure, shortened: as §1

[6] = target: T2, recombinant human CD63 extracellular …; experiment: SPR Biacore, mAb captured, 25C
Procedure, shortened: as §2

[7] = target: T3, recombinant human CD63 extracellular …; experiment: SPR Biacore, mAb captured, 25C
Procedure, shortened: as §2

B1: H1M12390N (antibody, V domains shown)
VH: QVHLVESGGGLVKPGGSLRLSCAASGFIFSDYYMSWIRQAPGKGLEWVSYIRGSGYNADSVQGRFTISRDNAKNSLFLQMNSLRAEDTAVYYCARGYSFGYGFFDYWGQGTLVTVSS
VL: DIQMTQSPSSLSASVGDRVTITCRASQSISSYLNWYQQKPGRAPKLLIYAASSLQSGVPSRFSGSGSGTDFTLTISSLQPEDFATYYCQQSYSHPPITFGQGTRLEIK
EC50 (human CD63 [1]): 0.48 nM | binding ratio at 3.7 nM vs NIH3T3 (human CD63 [1]): 559 fold | 100 nM Ag Bound (RU) [2]: 134 RU | Kd [2]: 0.546 nM | koff [2]: 0.000495 s⁻¹ | kon [2]: 907000 M⁻¹ s⁻¹ | t1/2 [2]: 23 min | 100 nM Ag Bound (RU) [3]: 38 RU | Kd [3]: 35.6 nM | koff [3]: 0.0149 s⁻¹ | kon [3]: 419000 M⁻¹ s⁻¹ | t1/2 [3]: 1 min | EC50 (human CD63 [4]): 0.3 nM | binding ratio at 3.7 nM vs NIH3T3 (human CD63 [4]): 31 fold | EC50 (human CD63 [5]): 0.36 nM | binding ratio at 3.7 nM vs NIH3T3 (human CD63 [5]): 339 fold | 100 nM Ag Bound (RU) [6]: 150 RU | Kd [6]: 1.89 nM | koff [6]: 0.000991 s⁻¹ | kon [6]: 523000 M⁻¹ s⁻¹ | t1/2 [6]: 12 min | 100 nM Ag Bound (RU) [7]: 54 RU | Kd [7]: 10.4 nM | koff [7]: 0.00336 s⁻¹ | kon [7]: 323000 M⁻¹ s⁻¹ | t1/2 [7]: 3 min

B2: H2M12454N (antibody, V domains shown)
VH: QVQLVESGGGLVKPGGSLRLSCAVSGFTYTDYFMNWIRQAPGKGLEWVSYISNSGAIKYYADSVKGRFTISRDNAKNSLYLQMNGLRADDTAVYYCVRDPRSYYGFDYWGQGTLVTVSS
VL: DIQMTQSPSSLSASVGDRVTITCRASQSISNFLNWYQQKPGKAPRLLIYGASNLQSGVPSRFSGGGSGTDFTLTISSLQPADFATYYCQQSFSNPPVTFGQGTRLEIN
notes: also called H2bM12454N
EC50 (human CD63 [1]): 0.32 nM | binding ratio at 3.7 nM vs NIH3T3 (human CD63 [1]): 175 fold | 100 nM Ag Bound (RU) [2]: 160 RU | Kd [2]: 0.895 nM | koff [2]: 0.000777 s⁻¹ | kon [2]: 868000 M⁻¹ s⁻¹ | t1/2 [2]: 15 min | 100 nM Ag Bound (RU) [3]: 56 RU | Kd [3]: 10.6 nM | koff [3]: 0.00591 s⁻¹ | kon [3]: 559000 M⁻¹ s⁻¹ | t1/2 [3]: 2 min | EC50 (human CD63 [4]): 0.18 nM | binding ratio at 3.7 nM vs NIH3T3 (human CD63 [4]): 14 fold | EC50 (human CD63 [5]): 0.47 nM | binding ratio at 3.7 nM vs NIH3T3 (human CD63 [5]): 132 fold | 100 nM Ag Bound (RU) [6]: 142 RU | Kd [6]: 0.523 nM | koff [6]: 0.00036 s⁻¹ | kon [6]: 688000 M⁻¹ s⁻¹ | t1/2 [6]: 32 min | 100 nM Ag Bound (RU) [7]: 61 RU | Kd [7]: 4.89 nM | koff [7]: 0.00188 s⁻¹ | kon [7]: 384000 M⁻¹ s⁻¹ | t1/2 [7]: 6 min

B3: H2M12385N (antibody, V domains shown)
VH: QVQLVESGGGLVKPGGSLRLSCAASGFTFTDYFMNWIRQAPGKGLEWVSYISNSGAIKYQADSVKGRFTISRDNAKNSLYLQMNSLRADDTAVYYCVRDPRSYYGFDYWGQGTLVTVSS
VL: DIQMTQSPSSLSASVGDRVTITCRASQSIRNFLNWYQQKPGKAPRLLIYAASSLQSGVPSRFSGGGSGTDFTLTISSLQPEDFATYYCQQSYSNPPITFGQGTRLEIK
notes: also called H2bM12385N; H2bM12385
EC50 (human CD63 [1]): 0.45 nM | binding ratio at 3.7 nM vs NIH3T3 (human CD63 [1]): 71 fold | 100 nM Ag Bound (RU) [2]: 133 RU | Kd [2]: 2.05 nM | koff [2]: 0.0017 s⁻¹ | kon [2]: 827000 M⁻¹ s⁻¹ | t1/2 [2]: 7 min | 100 nM Ag Bound (RU) [3]: 44 RU | Kd [3]: 40 nM | koff [3]: 0.0109 s⁻¹ | kon [3]: 271000 M⁻¹ s⁻¹ | t1/2 [3]: 1 min | EC50 (human CD63 [4]): 0.29 nM | binding ratio at 3.7 nM vs NIH3T3 (human CD63 [4]): 5 fold | EC50 (human CD63 [5]): 0.64 nM | binding ratio at 3.7 nM vs NIH3T3 (human CD63 [5]): 47 fold | 100 nM Ag Bound (RU) [6]: 121 RU | Kd [6]: 1.66 nM | koff [6]: 0.000984 s⁻¹ | kon [6]: 592000 M⁻¹ s⁻¹ | t1/2 [6]: 12 min | 100 nM Ag Bound (RU) [7]: 48 RU | Kd [7]: 10.3 nM | koff [7]: 0.00331 s⁻¹ | kon [7]: 322000 M⁻¹ s⁻¹ | t1/2 [7]: 3 min

B4: H2M12392N (antibody, V domains shown)
VH: QVQLVESGGGLVKPGGSLRLSCATSGFTFGDYYMNWFRQAPGKGLDWVSYISSSGSTRYYADSVRGRFTISRDNAKNSLYLQMNSLRAEDTAVYYCVRDLRYYYGMDVWGQGTTVTVSS
VL: not shown
notes: also called H2aM12392N
EC50 (human CD63 [1]): 0.4 nM | binding ratio at 3.7 nM vs NIH3T3 (human CD63 [1]): 608 fold | 100 nM Ag Bound (RU) [2]: 177 RU | Kd [2]: 0.582 nM | koff [2]: 0.000445 s⁻¹ | kon [2]: 765000 M⁻¹ s⁻¹ | t1/2 [2]: 26 min | 100 nM Ag Bound (RU) [3]: 68 RU | Kd [3]: 7.25 nM | koff [3]: 0.00324 s⁻¹ | kon [3]: 447000 M⁻¹ s⁻¹ | t1/2 [3]: 4 min | EC50 (human CD63 [4]): 0.23 nM | binding ratio at 3.7 nM vs NIH3T3 (human CD63 [4]): 51 fold | EC50 (human CD63 [5]): 0.53 nM | binding ratio at 3.7 nM vs NIH3T3 (human CD63 [5]): 405 fold | 100 nM Ag Bound (RU) [6]: 169 RU | Kd [6]: 0.391 nM | koff [6]: 0.000199 s⁻¹ | kon [6]: 510000 M⁻¹ s⁻¹ | t1/2 [6]: 58 min | 100 nM Ag Bound (RU) [7]: 79 RU | Kd [7]: 3.1 nM | koff [7]: 0.000922 s⁻¹ | kon [7]: 298000 M⁻¹ s⁻¹ | t1/2 [7]: 13 min
